Measurements as given in the DeepSol protein solubility set.

Test: soluble on expression in E. coli; label from the status in PepcDB or PDB records

Soluble on expression in E. coli, not soluble:
MGSDKIHHHHHHMEEHFLYVPYYNRTRRIRVLLPKDYYTDTWDSYAVLYMHDGQNIFYSKESYSGYSWKIIPTIKHHKEFPKIIIVGIDNSGVDRLDEYGPWRTDVGSSPEIKKCGGKGMEYGKWVVEIVKPFIDQHYRTKPQKEHTLLAGSSMGGIITAYMGSAYPQIFGHLGVFSLASWFSEKDFLHFIHHNPIDKNSKVFIQVGTKEGDDVDSLFISNMNQAYIDCTLHYYQALLRTGHPLDNIRLRMMANEIHHEKHWADHFVEFLHFSLL
MGSDKIHHHHHHMEERIGLIDIGSNTIRLVIFGYNKKTGLNEILNIKTPARLSQYLTKSNEMNDEGIHVLKETLSSFRKVADKFNVDALYPIATAAIRQSKNREAIIKEIKQDIHIEIQIVPEEDEAFYGYYAITHTTDIENGISVDIGGGSTEVTLFKDKQLKEAHSFPFGVVSLKRQFFGDKAHNDKTAIKNMEQFLREQFSQLDWLSNQHIALVGVGGSARNVARIHQSAHAYPIGGVHNYKMTSKDINNVYDLIRKSSRDELTNLDGLSRDRVDIILPAISVFKTLFKKIDATQFTFSRKGIREGFIMNHISKRYPDEFNKSNVRKDALRHLANEYHIEETSANRRVKLAQSLLNQIISERSLNISAMEKELFIEGSYIYYLGSFIDSDSSSPHTYYLIANSMINGFSHKDRVKLALLASFKNKSLLKFYCKETQWFSNKEIDTIQALGGIIKFANTLNISHTSFVEEVKLKAKKDDKYDLLVYYKGSPIAEEYQANRQKKHIEKILKGKVSIIFTKS
MGSDKIHHHHHHMEFSPQQDEALQAVARWLQAGKPQLFRLFGYAGTGKTTLARYFAEHVDGQVQFAAFTGKAAQVLRSKGAVNARTIHSLIYRPKGEESVEDEVTGKTSMSPTFSLNRQSPISRAKLVVIDECSMVDEQLGRDLMSFGTPILVLGDPGQLPPISGGGFFTDHEPDFLLTEIHRQARDNPILRLALDVREGREFMRGDYGTAQVIGKEDVTQELVLKADQVLVGTNRTRRRYNQRLRELKGFNADYPQAGDKLVCLRNDPAKGLLNGSLWKVMTSSRETVKPGINLLVSPEEDDPDRGVAKIKLLKAAFEDPDADIPWQQKKRFDDFDYGYALTVHKAQGSQWNEIVLFDESWAFKETRQRWLYTAITRAAERLTIVR
MGSDKIHHHHHHMEFVFGKKVFQSEVRKASDLKPVLAFPEALKEDFDAYYMFRDSFKTDEEAEIIRNAGLRYDYTVIPPNNIGGESIKTYGHYHPEVVRGFTYPEVYQVLEGEALFILQKPSNGKIEDVIVVEGKKWDTVIIPPNYGHVTINPTESDLITANWVCRNFSSIYEPYTKRRGACYYYINGEWVRNRNYDDAPEIRFAKPKNVLDVKGDMYDLVYTIEKLEFLVKPHEHQEIFENAFEVV
MGSDKIHHHHHHMEHLLHYVWKHKLFPLKILQTTKGLLVEIIDSGLQNPDAGPDFFNAKLKIDGTLWVGNIEIHTHSSDWYRHGHDHDKTYDSVILHVVAEADAEVTRSNGEQIPQLLLTCPENVQTHYHELCIADQYPACYSIIGSLSKLTIHSWLTALQTERLEQKARQIADRLERCDRHWEDAFFITLARNFGFGLNGDAFETWAGLLPFRAIDKHRNDLFQIEAFFFGQAGLLEEAFLKKEQEDEYSLRLRKEFRYLQRKFELNQVMDAGLWRFLRLRPENFPHIRLAQLAYLYQKVDKLFSQMMEAETLPEVRQLLSTHASAYWDNHYIFGRPSPQREKSMGEKSQDLIVINTVVPFLYAYGLHRTDERMCDRAGRFLEELKAENNHIIRSWGDAGLPVGSAADSQALIQLRKEYCDKRKCLFCRFGYEYLRKK
MGSDKIHHHHHHMEIDPRAQLIEWESSSLGVKGRMYVYTPPEYHPHGPALPVVYLLRGHEREWVNRREDDSRMGSAIDVYERVRARGEIGPLILAMPGLASTDNRIPGLLADFAAPHLTDAEGIGSGRFATFFFEEVLPLLEREFHAHPQARAITGFSLGGYMAVKAVALHPELFVSVSAYDGSFPYASDNGRRSRRYDTLFTASMFDPALGRPRDPDRLRDHNPICLLMRANRAALRRITWMIQYGPEHIEPWGANFYRGEYLLRALATLGIANATPIAALPDGAHTWAVADRHLEQALPLHYRAFERVMKSDP
MGSDKIHHHHHHMEIHMNPWLNAVAQVEALEDLVLNADLVDSMRERWSGLSGSQVGRINFYTPSFKHHETSEVSACGKNAFPAISITGGDCKLQCDHCKAKILEPMIPVRTPEELDRLVDRIVLDGGRGLLLSGGSDHQNVVHYEPYFPTVRKIKDRYPNLQIAMHTGIATPEFARGMEDAGVDVAMMDVIGAQDTINQVYHLRRSVDDFEAALEALVATRMKVVPHIVIGLHYGELLGEWNALEIIQRHLPSALVLVVIMPQYAASSRPFATPAADEIGKFFMDARAALPETPVLLGCARPSGVHRSITDTYAVMAGLNGVAFPSDGMLALAKHLERDVFVTPSCCSMIVGEEVLALGDETTTVPLDYVPAAPKRRPQLRDIPIVFTA
MGSDKIHHHHHHMEIQNLKFEDRDEFKRKSIAAKVISVLQADIDISPMVIDGSWGTGKTEFCHKLINLMHVSDTHHLIYVDAFKADHADEPLMTVLAEVIKVLPDDDSKQSFMKKALPAVRYGLKTIAKAGVSHLLRQDIADVADDFDKQIQGAADKAIDATVESVLKDHVKADKNLKALQVALADIAAIKPIVLFIDELDRCRPNFAVDMLEIIKHTFDVDGVKFVLITNTQQLKASINHCYGLSVDAQRYLDKFVKFTIALPETVDTNAHRESIAAIEHYKNLVRSSHVLVDMKLYECGSIRTIEQIIIANRLSLREVETVVRHIEIYVTLAQSNNLQSNTIFGYKVLTILAIAIYSIQPEVALSILQKKLDAKDIGNCLGISSLSNNIQGRPDEQELICYMLGYTALHNKEHFTPTEDVDVWKQESAQYFRGAHWRTDDFASICAEAIQTLTMC
MGSDKIHHHHHHMEKEIAIITLHGMGDYKPNYFEALKNQLEKKLGTKWDKIAFEPVQYQPILQQNQIKIWQRMNSYPLDGSILRRFLLFGFSDAGSLEYSARSKVSVQYIEVQKEIMQALDKLYVELGNNDKPVIIIAQSLGCQVISNYIWDAKHDSGIFNGLEPDASAQLKSFRRLNSCVHLLTTGCNIPMFVAGLNPIEAIQKPNNEFTWFNYYDRDDVLGWPLSPLSDSYGALVKDHEINAGGIFSSWNPWSHGQYWTDKDVLNSLIDRIRRYI
MGSDKIHHHHHHMEKNYYLTKTEQRIFNVIKHAKIITVREVAELFPELSRNMICKALSSLEKKGYLYRIKNGLYLIQQAPTKGSIIIEDPYRIALAMFSGYIAFSSALRLYNLIEYEPFTVFVATPRKSKKVEIDNYIIQAVALGEKATGITLYNGVYTSTLAKTFFDCFYKPQYCGGYETITKALYEAESIDWKEFLDYFKRFASPSLFQRTGYILELMNKELNFKIPKEVLEFFRSKVETKTKLVPTSPSRGKFIKEWKLLDNLGKDKILGWAYGY
MGSDKIHHHHHHMELTGHMKNNRYSIFRNAICIAATAGMLFGCGPDKKPVEKVAEEVVLQPMVTPDFNSDSSYEYVSRQVAFGPRVPNTKPHMDCGEYLAKFFTKHGGWVYRQQFSAKAFDGTDLRLKNIIVSYNQKATKRILLAAHWDTRPFADQDEVDPKKPIDGANDGASGVGILMELARVINLAEKKPDVGFDIILFDGEDYGQPMYYPGPYQNDSWCLGSQYWAKHKFPANYSAYYGILLDMVGAKDATFAKEGVSVENAPSVVNNVWTTAARLGYGKHFINVMSQPITDDHTYINKLALIPMIDIIEYENSDDVYFGSYWHTHNDNMNIIDKNTLKAVGQTLIEVLYREKL
MGSDKIHHHHHHMELYAASYILPIASPPIPGGAVAVHDGCIVETGTLAELRSRHSGPVHDFPGCAILPGLVNAHTHLELTHFPSWKIRKGIDYSPRTYVDWIIQVIKIRRALSPQELELSVREGLRICLEAGTTAIGEILTDRSLIPLYADSGLRGRLLFEAIGHDPVRNAQLVEELDAAIASFSGGSFLPGISPHAPHTVAEHLHQDVYRLAYERNVPRVIHLAESREESDFFFDSSGKIAEFLYPHVRWESYLPAPRRTTATAWLDGLGVLNGTISAVHCVHLTPSDAEILAKRGVGVVLCPRSNDKLAVGRAPVVLLKRLGVPLALGTDSLASNDSLSLWDEMRYLLDTFPGIFTPTEALSMTTIGSARQLALADRTGSLDKGKHADFLVMKLPGRNGSGEALHEALIHSGEILQVFLAGNLVVSREAFS
MGSDKIHHHHHHMEMLFLLKNLYRDPLALSRFSQFRCLHISKGEIIQNLNETHEFQVCFVLKGSLCLFRDHIESMPLMAMQNEFFFISSLHQCKIKAMDEVQLVIHACNIVAPYLHSRTIEYLQDISIEEVKPVEVLPIYPLMRSYLDLLVDYMKNGTEIPDLHRAKEYELFSLFKICYKKNEIASIFRDALSNDLQFFVSVMTHYKACRTAKELAVLCGYNDTVFTQLFKKNFHGDTPYQWLQKQTSYEIEFKLKKSTLPIKQIMLDYHFKTFSHFTTYCKRNIGATPNEIRKKGEESRDTPSLETYSVSAND
MGSDKIHHHHHHMENKEVIIIGAGAAGVGMGVALKDFGINNFAILERKQVGNSFIKWPEQTRFITPSFTSNGFGMPDLNAIAIDTSPSYTLGEERLSGKDYAKYLQLVSEEYKLPIKTNCKVQSIKKEKTGYLLETTKGFIYAEYVIFAMGEFSFPNKSSIKGAYKNSLHYGEINSWIEIKGDKQTIIGGNESAIDAAIELAKLGKRVTIYTDTLGLNIRDADPSKRLAPRTRQRFFDLRVNQKKLDSIKIYTTTKVKKIEKKSTSYILITENGKSLPVENIPILCTGFKNGTKSITASLFKYKENGEVLLNDFDESTIAKNIFLTGPNVRKGNTIFCYIYKFRQRFAVIANEIARRKHITIDEKKLSYYKNQSFYLDGCSGCEVRCSC
MGSDKIHHHHHHMENQTGIFNSYKIDPAHFDEAWLPTGDVRMHYKHLMETFKGLDIEEYLKINELAKGNLFNQGVTFNVYSENAEGVERLFPFDLFPRMIPSEEWKTIEVGIKQRNKAINLFLWDIYHEQKILKDKIVPSELLFSSQFYKKEMIGVDPPAGIYIHITGTDIIKHNDGKYYVLEDNLRCPSGVSYVLSNRETMKKIFFNLFSRYHVKPIMQYTEKLLSTIRSVAPDRIDNPLCVILTPGTYNSAYFEHSFLAHQMGIQLVEGRDLFVEKNFVYMKTIKGPKRVDVIYRRVDDDFIDPLVFNPKSVLGVPGLMSAYQAGNVTIINAPGTGVADDKAVYTYVPDIIKYYLGEEPILNNVPTYRCERPDEMKYVLENMHNLVVKPVDESGGYGVFIGNRKTKEEIEEYKKLILDTPRKYIAQPIMSLSVLSTFIEDSNESEQRHIDLRSFALMGKEETYVLDGGLTRVALSKGNLIVNSSQGGGSKDTWVIENY
MGSDKIHHHHHHMENRKHTSLKDLAQALGVSIPTVSRALKDSPEISRELCAKAKKLAKEMNYRPNPFAMSLRKNAPRIIGVIVPDIVTHFFASILNGIENMAIDNGYFVIITTSHESFEHEKRNIENLVNMRVEGIIACLSQETTDFSHFAALKEINMPLILFDRVCLTDQFSSVIADGAQSAQMATQHLLDNGSKRVAFIGGANHLDIVKRRKHGYLEALRDNRIPIEKELVVCRKIDYEEGQIATETLLSLPQPPDAILAMNDTLAFAAMEVIKRHGLRIPDDIAIIGYTDEQHANYVEPKLSAVSHQTYKMGETACQLLIDQIKGDRTVKQVVIPTHLQIRESSIKENNKKNAVST
